Measurements as given in US20250052751A1 (published 2025).

T1: MHC class II I-A^b molecules purified by affinity chromatography (;mouse, UniProt P14434 24-218; P14483 28-226)
T1 MHC II alpha: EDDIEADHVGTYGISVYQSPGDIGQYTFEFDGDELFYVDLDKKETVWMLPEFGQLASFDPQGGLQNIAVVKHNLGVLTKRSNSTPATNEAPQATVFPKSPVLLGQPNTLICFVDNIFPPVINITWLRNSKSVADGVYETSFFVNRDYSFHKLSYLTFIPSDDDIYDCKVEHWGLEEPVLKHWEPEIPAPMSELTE
T1 MHC II beta: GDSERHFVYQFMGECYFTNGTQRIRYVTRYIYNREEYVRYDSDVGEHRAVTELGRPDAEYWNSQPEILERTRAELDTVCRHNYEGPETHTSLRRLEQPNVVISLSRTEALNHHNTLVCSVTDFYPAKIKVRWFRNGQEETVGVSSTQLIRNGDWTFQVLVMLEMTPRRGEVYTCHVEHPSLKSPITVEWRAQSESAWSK


Target: T1, MHC class II I-A^b molecules purified …
Test: competitive peptide binding assay on purified I-Ab

Row | Binder | IC50
1 | HLFAINYTGASMNPARSFGP [AQP4 201-220] | 28 nM
2 | VAFKGVWTQAFW [AQP4 p24-35] | 4880 nM
3 | LFAINYTGASMNPARSF [AQP4 p202-218] | 16 nM
4 | GILYLVTPPSVVGGLGVTMV [AQP4 131-150] | 112 nM
5 | LYLVTPPSVVGGLGVT [AQP4 p133-149] | 184 nM
